B1: N-terminal Rad9 CAD region (yeast two-hybrid fusion) [S. cerevisiae] / Chk1 (yeast two-hybrid fusion) [S. cerevisiae] (parent)
chain 1: MSGQLVQWKSSPDRVTQSAIKEALHSPLADGDMNEMNVPVDPLENKVNSTNIIEGSPKANPNPVKFMNTSEIFQKSLGLLDESPRHDDELNIEVGDNDRPNANILHNERTPDLDRIANFFKSNRTPGKENLLTKYQSSDLEDTPLMLRKKMTFQTPTDPLEQKTFKKLKSDTGFCYYGEQNDGEENASLEVTEADATFVQMAERSADNYDCALEGIVTPKRYKDELSKSGG
chain 2: MSLSQVSPLPHIKDVVLGDTVGQGAFACVKNAHLQMDPSIILAVKFIHVPTCKKMGLSDKDITKEVVLQSKCSKHPNVLRLIDCNVSKEYMWIILEMADGGDLFDKIEPDVGVDSDVAQFYFQQLVSAINYLHVECGVAHRDIKPENILLDKNGNLKLADFGLASQFRRKDGTLRVSMDQRGSPPYMAPEVLYSEEGYYADRTDIWSIGILLFVLLTGQTPWELPSLENEDFVFFIENDGNLNWGPWSKIEFTHLNLLRKILQPDPNKRVTLKALKLHPWVLRRASFSGDDGLCNDPELLAKKLFSHLKVSLSNENYLKFTQDTNSNNRYISTQPIGNELAELEHDSMHFQTVSNTQRAFTSYDSNTNYNSGTGMTQEAKWTQFISYDIAALQFHSDENDCNELVKRHLQFNPNKLTKFYTLQPMDVLLPILEKALNLSQIRVKPDLFANFERLCELLGYDNVFPLIINIKTKSNGGYQLCGSISIIKIEEELKSVGFERKTGDPLEWRRLFKKISTICRDIILIPN

The variants in this assay derive from B1. Briefly: yeast two-hybrid (β-galactosidase activity). As to conditions: with Chk1 (yeast two-hybrid fusion) [S. cerevisiae]; parent: 1; read off a plot.
With chain 1 S11A S26A S56A S83A T110A T125A T143A T155A, the response worked out at 0.15 AU.

As for chain 1 S11A S26A S83A T110A T125A T143A T155A T218A, the response was found to be 0.18 AU.

On to chain 1 S11A S26A S56A S83A T110A T125A T155A T218A, for which the response stood at 0.8 AU.

As to chain 1 S11A S26A S56A S83A T110A T143A T155A T218A, the response turned out to be 0.59 AU.

Consider chain 1 S11A S26A S56A T110A T125A T143A T155A T218A, for which the response is 0.18 AU.

As to chain 1 S11A S26A S56A S83A T110A T125A T143A T155A T218A, the response amounted to 0.07 AU.

Take chain 1 S11A S26A S56A S83A T110A T125A T143A T218A: the response came to 0.28 AU.

As for chain 1 S11A S26A S56A S83A T125A T143A T155A T218A, the response is 0.2 AU.

Consider chain 1 S26A S56A S83A T110A T125A T143A T155A T218A, for which the response amounted to 0.22 AU.

Take chain 1 S11A S56A S83A T110A T125A T143A T155A T218A: the response worked out at 0.14 AU.

The record behind these values is PMC3616908.
